Substitutions are numbered along the chain they refer to.
B1: 515H7: murine anti-CXCR4 monoclonal antibody; light chain variable domain SEQ ID No. 7, heavy chain variable domain SEQ ID No. 8 (antibody, listed as Mus musculus, V domains shown)
VH: EVNLVESGGGLVQPGGSLRLSCATSGFTFTDNYMSWVRQPPGKALEWLGFIRNKANGYTTDYSASVRGRFTISRDNSQSILYLQMNALRAEDSATYYCARDVGSNYFDYWGQGTTLTVSS
VL: DIVMSQSPSSLAVSAGEKVTMSCKSSQSLFNSRTRKNYLAWYQQKPGQSPKLLIYWASARDSGVPARFTGSGSETYFTLTISRVQAEDLAVYYCMQSFNLRTFGGGTKLEIK
B2: 301aE5: murine anti-CXCR4 monoclonal antibody; light chain variable domain SEQ ID No. 34, heavy chain variable domain SEQ ID No. 35 (antibody, listed as Mus musculus, V domains shown)
VH: QVQLKESGPGLVAPSQSLSITCTVSGFSLTDYGVYWVRQPPGKGLEWLGMIWGDGTTDYNSALKSRLSISKDNSKSQVFLKMNTLQTDDTARYYCARGRQFGFDYWGQGTTLTVSS
VL: B1 VL with S22R, Y55F, A59I, D61E, A66D, E74G, Y76D, R83S, M95K, F98Y
B3: c515H7: chimeric antibody 515H7: murine variable domains fused to human Ckappa and IgG1/IgG2/IgG4 constant domains; isotype tested not stated (antibody, V domains shown)
VH: B1 VH
VL: B1 VL

Key:
[1] = system: HIV-1 X4 primary isolate MN; assay: Single cycle neutralization assay in human PBMC, isolate MN; assay type: cell-based; design: MN % inhibition of infected cells 90 / MN % inhibition of infected cells 80: unit not given here; details: for MN % inhibition of infected cells 80: IC for 80% inhibition; for MN % inhibition of infected cells 80 / MN % inhibition of infected cells 90: human PBMC; for MN % inhibition of infected cells 90: IC for 90% inhibition
Method: This assay is performed in 36 h using primary isolates KON, MN and 92UG024 concentrated and diluted accordingly to allow the detection 2% infected CD4 T lymphocytes after 2 days of infection.
Twenty-five microliters of various dilutions of Mabs 515H7, c515H7 and 301aE5 were incubated for 1 h at 37° C. with 25 μl of virus. Human PBMC (25 μl) at 20×10^6 cells/ml were added to the Mab/virus mixture in a 96-well plate (U-bottom, Costar 3599) and cultured for 36 h in RPMI 1640 10% FCS and 20 U/ml IL-2 (R&D Systems, Minneapolis, Minn.).
After 2 days of culture, HIV-infected lymphocytes were detected by intracellular staining of viral p24 Ag. Cells were fixed and permeabilized using both Cytofix/Cytoperm and Perm/Wash kits (BD Biosciences) according to the manufacturer and stained with a fluorescent anti-p24 Mab (FITC- or PE-anti-p24, clone KC57; Beckman Coulter/Immunotech, Hialeah, Fla.) used at a 1/160 dilution in Perm/Wash solution added for 15 min at 4° C. After washing in PBS with 3% FBS, PBMC were diluted in 300 μl of PBS before flow cytometry analysis (LSRII; BD Biosciences) with DIVA software (BD Biosciences). The percentage of p24-positive cells in the different samples was determined by gating 20,000 events on a living cell population identified by forward- and side-scatter parameters. The living cell subsets were analyzed with the live/dead solution kit (Invitrogen). The p24 Ag-positive value was obtained after subtraction of background events in mock-infected cells.
The percent of neutralization was defined as the reduction of p24-positive cells compared with control infected wells with no Mab. The neutralizing titer was defined as the concentration of antibody (interpolated between successive dilutions performed in triplicate) that allows a 90% decrease in the percentage of infected cells.

[2] = target: T1, CXCR4 homodimer (Homo sapiens, UniProt P61073); assay: BRET on HEK293 cells expressing CXCR4/Rluc+CXCR4/YFP; assay type: cell-based; details: without SDF-1
T1 construct: expressed in transfected cells; host or cells: HEK293, transient transfection
T1 sequence (P61073 whole entry): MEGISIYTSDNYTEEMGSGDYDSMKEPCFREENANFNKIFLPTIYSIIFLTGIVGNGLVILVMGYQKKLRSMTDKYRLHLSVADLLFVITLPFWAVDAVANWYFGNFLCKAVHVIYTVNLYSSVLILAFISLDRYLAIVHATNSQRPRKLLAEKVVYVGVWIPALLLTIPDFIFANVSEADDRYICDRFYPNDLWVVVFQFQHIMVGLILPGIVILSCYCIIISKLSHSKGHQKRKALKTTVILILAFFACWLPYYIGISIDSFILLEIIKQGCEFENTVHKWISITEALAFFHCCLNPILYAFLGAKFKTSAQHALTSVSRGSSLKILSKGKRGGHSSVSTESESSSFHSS
T1 sequence (P61073 whole entry): as above
Description: This functional assay allows to evaluate the conformational changes induced upon SDF-1 and/or 515H7 Mab binding to CXCR4 receptor at the level of CXCR4 homodimer.
(§1) Expression vectors for the investigated interaction partners were constructed as fusion proteins with the corresponding dye (Renilla reniformis luciferase, Rluc and Yellow fluorescent protein, YFP) by applying conventional molecular biology techniques. Two days prior performing BRET experiments, HEK293 cells were transiently transfected with expression vectors coding for the corresponding BRET partners: [CXCR4/Rluc+CXCR4/YFP] to study CXCR4 homodimerization. The day after, cells were distributed in poly-lysine pre-coated white 96 MW plates in complete culture medium [DMEM supplemented with 10% FBS]. Cells were first cultivated at 37° C. with CO2 5% in order to allow cell attachment to the plate. Cells were then starved with 200 μl DMEM/well overnight Immediately prior to the BRET experiment, DMEM was removed and cells were quickly washed with PBS. Cells were then incubated in PBS in the presence or absence of antibody, 10 min at 37° C. prior to the addition of coelenterazine H 5 μM with or without SDF-1 300 nM in a final volume of 50 μl. After incubation for further 10 minutes at 37° C., light-emission acquisition at 485 nm and 530 nm was initiated using the Mithras LB940 multilabel reader (Berthold) (1 s/wavelength/well repeated 15 times at room temperature).
(§2) Calculation of BRET ratio was performed as previously described (Angers et al., 2000): [(emission530 nm)−(emission485 nm)×Cf]/(emission485 nm), where Cf=(emission530 nm)/(emission485 nm) for cells expressing the Rluc fusion protein alone under the same experimental conditions. […] For sake of readability, results are expressed in mi11iBRET units (mBU); mBU corresponds to the BRET ratio multiplied by 1000.
This functional assay allows to evaluate the conformational changes induced upon SDF-1 and/or c515H7 Mab binding to CXCR4 receptor at the level of CXCR4 homodimer.
as §1, with “Cells were then incubated in PBS in the presence or absence of antibody, 10 min at 37° C. prior to the addition of coelenterazine H 5 μM with or without SDF-1 300 nM in a final volume of 50 μl.” left out
as §2, with “milliBRET” for “mi11iBRET”, “1000. […]” for “1000.”

Row | Molecule | inhibition of HIV-1 X4 MN primary isolate replication in PBMC (in words) [1] | MN % inhibition of infected cells 80 [1] | MN % inhibition of infected cells 90 [1] | modulation of CXCR4/CXCR4 spatial proximity by the Mab itself [2]
1 | B1 | able to inhibit | 1.5 | 10 | able to modulate by themselves CXCR4/CXCR4 spatial proximity
2 | B2 | able to inhibit | 150 | >150 | able to modulate by themselves CXCR4/CXCR4 spatial proximity
3 | B3 | able to inhibit | 1 | 15 | able to modulate by itself CXCR4/CXCR4 spatial proximity

From patent publication US9090686B2, “Antibodies for the treatment of HIV” (Pierre Fabre Medicament, priority 2009, dated 2015)
